Measured values published in patent US10407469B2, “Programmable polypeptide and nucleic acid nanoparticles” (Northwestern University, priority 2016, dated 2019).

How the values were obtained:
siRNA [1] = assay: Structural change upon siRNA binding, circular dichroism; type: physicochemical
Source text: (§1) FIGS. 1A-I. Nanoparticles of an engineered polypeptide carrying siRNA (A) C-terminus RNA binding motif CT-dsRBD (in yellow) excised from a canonical double stranded RNA binding domain (dsRBD) and fused to a self-assembly enhancer […] in order to obtain the engineered RNA binding polypeptide (P4) (B) electrophoresis gels of proteins binding siRNA (left). Plot of the bound siRNA (right). (C) Structural change of P4 and CT-dsRBD upon binding to siRNA determined by circular dichroism. (D) Increase in hydrodynamic size of P4 upon siRNA binding determined by DLS. (E) siRNA-P4 nanoparticles in solution imaged by cryo-TEM. Scale bar is 200 nm. […] (H) Salt stability of P4 nanoparticles. (I) Formation of siRNA-P4 nanoparticles in different buffers.
(§2) FIGS. 2A-J. Programmable protein for bioactive siRNA delivery nanoparticles. (A) P4 is functionalized with bioactive peptides, P4-RGD & P4-His6. […] (E) Ellipticity change in function of siRNA concentration (bottom scale) and P4-to-siRNA stoichiometry (top scale). (F) Hydrodynamic size and (G) Zeta potential of P4 nanoparticles. (H & I) Cryo-TEM and (j) AFM micrographs of siRNA-P4 nanoparticles.

siRNA [2] = assay: siRNA binding, electrophoresis gels; settings: compared with P4
Source text: as §1, §2

siRNA [3] = assay: Nanoparticle self-assembly upon siRNA binding (DLS, cryo-TEM); type: physicochemical
Source text: as §1, §2

Substance	Structural change triggered by siRNA binding (siRNA [1])	binding to siRNA / nucleic acid cargo (siRNA [2])	self-assembly into nanoparticles upon binding to nucleic acid (siRNA [3])	hydrodynamic size upon siRNA binding (siRNA [3]; determined by DLS)
P4-His6: P4 functionalized with bioactive peptide His6 (HHHHHHSIRKLEYEIEELRLRIGGGTFVETGSGTSKQVAKRVAAEKLLTKFKT)	triggered by siRNA binding as in P4	bind to siRNA similarly as P4		
P4-RGD: P4 functionalized with bioactive peptide RGD (CRGDCSIRKLEYEIEELRLRIGGGTFVETGSGTSKQVAKRVAAEKLLTKFKT)	triggered by siRNA binding as in P4	bind to siRNA similarly as P4		
P4: engineered RNA binding polypeptide: CT-dsRBD RNA binding motif fused to a self-assembly enhancer helix (SIRKLEYEIEELRLRIGGGTFVETGSGTSKQVAKRVAAEKLLTKFKT)			self-assembles into nanoparticles upon binding to siRNA	Increase
